In patent US20090098142A1 (published 2009):

Target: T1, cynomolgus monkey IL-13 (NHP IL-13) (cynomolgus monkey, UniProt Q5I6E4 21-132 (Macaca thibetana entry))
T1 construct: Also used here for the IL-13 found in cynomolgus monkey serum; also called non-human primate IL-13; cynomolgus IL-13
T1 chain: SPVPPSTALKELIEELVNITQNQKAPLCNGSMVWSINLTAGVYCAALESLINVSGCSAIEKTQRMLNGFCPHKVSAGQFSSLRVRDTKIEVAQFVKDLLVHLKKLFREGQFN
Experiment: direct NHP IL-13 binding ELISA
From the text: The humanized MJ 2-7 V3 and V4 were produced in COS cells by combining hMJ 2-7 VH V1 with hMJ 2-7 VL V3 and V4. The antigen binding properties of the antibodies were examined by direct NHP IL-13 binding ELISA.

- binding result: no binding
B1: humanized MJ 2-7 V3 (hMJ 2-7 VH V1 with hMJ 2-7 VL V3) (antibody, V domains shown)
VH: QVQLVQSGAEVKKPGASVKVSCKASGFNIKDTYIHWVRQAPGQRLEWMGRIDPANDNIKYDPKFQGRVTITRDTSASTAYMELSSLRSEDTAVYYCARSEENWYDFFDYWGQGTLVTVSS
VL: DVVMTQSPLSLPVTLGQPASISCRSSQSLVYSDGNTYLNWFQQRPGQSPRRLIYKVSNRFSGVPDRFSGSGSGTDFTLKISRVEAEDVGVYYCFQGSHIPYTFGGGTKVEIK
notes: Produced in COS cells; VL V3: DPK18 with human germline CDR1 and CDR2 and the CDR3 of mouse MJ2-7; also called hMJ2-7 V3; Version 3
